Measurements from patent US20250002610A1 (Genmab, published 2025).

Target: T1, human FAPα (Fibroblast activation protein alpha), cell surface expressed (human, UniProt Q12884 1-760)
T1 construct: Endogenous on human lung fibroblasts and CAFs
T1 sequence: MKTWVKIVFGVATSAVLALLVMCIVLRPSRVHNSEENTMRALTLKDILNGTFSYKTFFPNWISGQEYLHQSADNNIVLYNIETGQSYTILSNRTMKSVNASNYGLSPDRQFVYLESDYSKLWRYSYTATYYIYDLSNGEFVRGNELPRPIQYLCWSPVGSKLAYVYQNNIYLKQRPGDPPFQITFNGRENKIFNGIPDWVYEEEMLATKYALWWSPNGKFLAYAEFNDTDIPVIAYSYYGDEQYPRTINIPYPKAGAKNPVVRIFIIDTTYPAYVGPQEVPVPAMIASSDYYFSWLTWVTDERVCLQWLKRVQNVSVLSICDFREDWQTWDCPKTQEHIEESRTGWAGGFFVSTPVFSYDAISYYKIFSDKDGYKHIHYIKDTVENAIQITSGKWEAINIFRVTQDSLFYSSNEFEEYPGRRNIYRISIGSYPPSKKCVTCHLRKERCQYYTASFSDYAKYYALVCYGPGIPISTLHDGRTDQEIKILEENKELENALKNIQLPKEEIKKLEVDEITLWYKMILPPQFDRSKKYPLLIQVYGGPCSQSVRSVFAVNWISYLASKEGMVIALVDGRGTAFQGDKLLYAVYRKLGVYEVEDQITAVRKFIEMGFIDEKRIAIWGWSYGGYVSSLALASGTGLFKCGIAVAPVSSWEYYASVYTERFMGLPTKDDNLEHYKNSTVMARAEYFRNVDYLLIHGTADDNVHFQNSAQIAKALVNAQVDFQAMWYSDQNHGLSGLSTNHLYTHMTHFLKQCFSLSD
Experiment: flow cytometry, human lung fibroblasts, n = 2
Method: Human lung fibroblasts and CAFs (50,000 cells/well) were seeded in 96-Well round bottom plates (Greiner Bio-one, Cat #650101). Antibody dilutions were prepared using fluorescence-activated cell sorting (FACS) buffer, consisting of phosphate buffer saline (PBS, Lonza, Cat #BE17-517Q)+1% Bovine Serum Albumin (BSA, Roche, Cat #10735086001)+0.02% Sodium Azide (Bio-World, Cat #41920044-3). Plates were centrifuged, supernatant was removed, cells were resuspended in 50 μL of human Fc Block (BD, Cat #564220, diluted 1:100 in FACS buffer) and 50 μL of viability stain TO-PRO-3 Iodide (Thermo Fisher, Cat #T3605, diluted 1: 25,000 in FACS buffer), and incubated for 15 min at 4° C. Plates were washed three times with FACS buffer. Plates were centrifuged, supernatant was removed, cells were resuspended in 50 μL of antibody dilutions (concentration range 90-0.0005 μg/mL, three-fold dilution steps using FACS buffer) of BisG1-FAPα-FERL/DR4-FERR, BisG1-FAPα-FERL/b12-FERR, BisG1-b12-FERL/b12-FERR (top six concentrations only for CAFs culture) or IgG1-FAPα-FERL (top four concentrations only for CAFs culture) and incubated for 30 min at 4° C. Cells were washed three times with FACS buffer and resuspended in 50 μL of Fluorescein isothiocyanate (FITC)-labeled polyclonal antibody goat anti-mouse IgG1 (Jackson Immuno Research, Cat #109-096-097, diluted 1:100 in FACS buffer). […] Antibody binding to viable cells (TO-PRO-3 negative) was analyzed by flow cytometry on a FACSCelesta™ (BD biosciences) and data were processed using FlowJo_v10.8.1 (FlowJo LLC). Geomean fluorescence intensity, gMFI, was determined and visualized using GraphPad Prism. Binding curves were analyzed using nonlinear regression analysis. […]
Binding of FAPα-targeting monoclonal antibody clones, IgG1-FAPα-FEAL and IgG1-FAP5-FEAL, and bispecific antibodies carrying a binding arm derived from the two FAPα-binding clones (BisG1-FAPα-FEAL/b12-FEAR and BisG1-FAP5-FEAL/b12-FEAR) to human lung fibroblasts, which endogenously express FAPα, was compared and analyzed by flow cytometry.

B1: BisG1-FAPα-FEAL/b12-FEAR (bispecific antibody, human IgG1, kappa)
heavy 1: EVQLLESGGGLVQPGGSPRLSCEASGFTFSSYALSWVRQAPGKGLEWVSAISGSGGGRYYADSVKGRFTISRDNSKNTLFLQMNSLRAEDTAVYYCAKEGYSSSGTYWDHWGQGTLVTVSSASTKGPSVFPLAPSSKSTSGGTAALGCLVKDYFPEPVTVSWNSGALTSGVHTFPAVLQSSGLYSLSSVVTVPSSSLGTQTYICNVNHKPSNTKVDKRVEPKSCDKTHTCPPCPAPEFEGGPSVFLFPPKPKDTLMISRTPEVTCVVVAVSHEDPEVKFNWYVDGVEVHNAKTKPREEQYNSTYRVVSVLTVLHQDWLNGKEYKCKVSNKALPAPIEKTISKAKGQPREPQVYTLPPSREEMTKNQVSLTCLVKGFYPSDIAVEWESNGQPENNYKTTPPVLDSDGSFLLYSKLTVDKSRWQQGNVFSCSVMHEALHNHYTQKSLSLSPG
light 1: AIQMTQSPSSVSASVGDRVTITCRASQGVSSWLAWYQQKPGRAPKLLIYVASTLQSGVPSRFSGSGSGTDFTLTINSLQPEDFATYYCQQANSFPPTFGQGTRLEMKRTVAAPSVFIFPPSDEQLKSGTASVVCLLNNFYPREAKVQWKVDNALQSGNSQESVTEQDSKDSTYSLSSTLTLSKADYEKHKVYACEVTHQGLSSPVTKSFNRGEC
heavy 2: QVQLVQSGAEVKKPGASVKVSCQASGYRFSNFVIHWVRQAPGQRFEWMGWINPYNGNKEFSAKFQDRVTFTADTSANTAYMELRSLRSADTAVYYCARVGPYSWDDSPQDNYYMDVWGKGTTVIVSSASTKGPSVFPLAPSSKSTSGGTAALGCLVKDYFPEPVTVSWNSGALTSGVHTFPAVLQSSGLYSLSSVVTVPSSSLGTQTYICNVNHKPSNTKVDKRVEPKSCDKTHTCPPCPAPEFEGGPSVFLFPPKPKDTLMISRTPEVTCVVVAVSHEDPEVKFNWYVDGVEVHNAKTKPREEQYNSTYRVVSVLTVLHQDWLNGKEYKCKVSNKALPAPIEKTISKAKGQPREPQVYTLPPSREEMTKNQVSLTCLVKGFYPSDIAVEWESNGQPENNYKTTPPVLDSDGSFFLYSRLTVDKSRWQQGNVFSCSVMHEALHNHYTQKSLSLSPG
light 2: EIVLTQSPGTLSLSPGERATFSCRSSHSIRSRRVAWYQHKPGQAPRLVIHGVSNRASGISDRFSGSGSGTDFTLTITRVEPEDFALYYCQVYGASSYTFGQGTKLERKRTVAAPSVFIFPPSDEQLKSGTASVVCLLNNFYPREAKVQWKVDNALQSGNSQESVTEQDSKDSTYSLSSTLTLSKADYEKHKVYACEVTHQGLSSPVTKSFNRGEC
notes: Fab-arm exchange of IgG1-FAPα-FEAL and IgG1-b12-FEAR
Q: Which EC50 does the source give for B1 here?
A: 0.044 µg/mL
